Reference: PMC12420816 (Nature Communications, 2025)

Molecular target: SARS-CoV-2 nsp16 with uncleaved His6-tag (SARS-CoV-2) (UniProt P0DTD1)
Assay: native MS

Substance: SARS-CoV-2 nsp7-11 polyprotein, tag-free with native (authentic) termini (domain or fragment)
- percent of signal as complex: 2%
